The stoichiometry N is a count of units in the complex or per binding partner.

Our source for the percent of protein that is dimer and stoichiometry N values is article doi:10.1101/2020.03.26.992446.

The target in experiment [1] is purified DJ-1 V51C (N-terminal 6×His-tagged) (human) (UniProt Q99497). Nature of the experiment: SEC. In general terms: In gel filtration, larger molecules generally elute earlier.
Experiment [2] concerns the target T1, purified DJ-1 WT (N-terminal 6×His-tagged) (human), Q99497.
T1 chain: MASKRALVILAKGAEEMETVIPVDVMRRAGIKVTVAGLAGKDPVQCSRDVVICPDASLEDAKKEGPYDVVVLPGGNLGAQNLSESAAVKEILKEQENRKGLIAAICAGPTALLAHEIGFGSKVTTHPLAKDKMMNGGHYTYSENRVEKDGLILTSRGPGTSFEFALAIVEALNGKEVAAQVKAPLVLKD
Nature of the experiment: SEC. As to conditions: remark: other sources report otherwise.

The molecule “purified DJ-1 V51C (N-terminal 6×His-tagged) (from UniProt Q99497 1-189) (natural protein)” had a percent of protein that is dimer in experiment [1] of 15%.

B1: purified DJ-1 WT (N-terminal 6×His-tagged), Q99497 1-189 (natural protein)
chain: MASKRALVILAKGAEEMETVIPVDVMRRAGIKVTVAGLAGKDPVQCSRDVVICPDASLEDAKKEGPYDVVVLPGGNLGAQNLSESAAVKEILKEQENRKGLIAAICAGPTALLAHEIGFGSKVTTHPLAKDKMMNGGHYTYSENRVEKDGLILTSRGPGTSFEFALAIVEALNGKEVAAQVKAPLVLKD
In experiment [2], B1 returned a percent of protein that is dimer of 33% and a stoichiometry N of 2.
